The subject of test [1] is MSRV-Env induced EAE in C57BL/6 mice. Briefly: Rotarod test, Example 3.A (MSRV-Env induced EAE). The test is classed as in vivo. The conditions noted are these: Example 3.A doses. The procedure:
9 and 8 days before immunization. Transfer of mice, in their home cages, from the holding room to the experimental room. Mice are habituated to the experimental room for 15 min. During the training period, each mouse was placed on the rotarod at a constant speed (4 rpm) if one mouse was falling, she was back on rotarod, when mice were comfortable on the rotarod, mice were running during 120 sec. All mice were returned to their cage, the speed was increased to 13 rpm and mice were again put on the rotarod for 120 sec. All mice were returned to their cage, the speed was increased to 19 rpm and mice were again put on the rotarod for 120 sec. The experimental-room environment were kept constant between test sessions with respect to temperature, and light intensity.
1 day before each immunization, mice were transferred in their home cages, from the holding room to the experimental room. Mice were habituated to the experimental room for 15 min. Mice then received two trials at 10 increasing speed levels, ranging from 7 to 40 rpm. Individual delays before falling off the rotarod (for the two trials at each speed level) was recorded until 60 sec. Thus, training and performance on the Rotarod system were determined for each animal.
The ROTAROD test results are expressed as kinetics of the mean of individual scores for each group with SEM indicated by bars, for each test day and for each test speed within the discriminating range for neuromotor impairment in present conditions (16 to 29 rpm).
They are calculated for each individual mouse, for each test day and for each speed value, as the relative gain or loss of time on Rotarod (before falling), compared to the first test day at the same speed (D-7, before starting the disease induction in relevant groups). The value is calculated as “Time on Rotarod at dayX”−“Time at Day-7 for the same mouse at the same speed”. Figures illustrate the kinetics for the different groups on the whole study period, for representative discriminative speed values when validated to differentiate ill from healthy animals in our conditions (e.g., too high or too low speed values either made healthy ones fall immediately or ill ones capable to sustain a slow movement).
All groups of 6 (six) mice have been first injected s.c. in the neck on day 0 then in the dorsal flanks on day 7 and 14; with 200 μg of MOG/mouse+60 μg of MSRV-Env+IFA.
For Groups G to H, the treatments with GNbAc1, L-NAME, SMT and DMF alone or together with GNbAc1 with the doses indicated below, have been initiated on day 12 post immunization when the progression of EAE clinical symptoms was already observed. GNbAc1 humanized antibody was administered once, but L-Name or SMT was administered every 4 days until termination of the study on day 29. Regarding Groups E and H, attributed for the treatment with DMF, we have previously determined the volume of daily water consumption by each mouse and it has been determined that (in our condition), each mouse consumed around 3.5 ml drinking water per day. Thus, on the basis of this measurement, a dose of 1 mg DMF+0.08% Methocel per mouse were added to 3.5 ml drinking water daily.
Background: The rotarod test checks motor coordination on a turning rod.

A short description of test [2]: Weight gain kinetics, Example 3.B. The test is classed as in vivo, mice. The procedure:
Mice were weighed 3 times a week on Monday, Wednesday and Friday during all experiment.
All mice received three injections s.c. on the neck at DO, on the dorsal flank at D7 and D14. Here, mice from Group A were injected with 200 μg/mouse of MOG and IFA only, without Env, thus constituting a negative control group without EAE in the present series (ctrl −). The positive control group with untretated EAE in the present series is represented by Group B (ctrl +). Other groups were injected with 200 μg of MOG/mouse+MSRV-ENV (60 μg)+IFA, with treatments as indicated in the above summarized presentation. Treatments have been initiated on day 12 post immunization in their corresponding groups.
The clinical signs score and weight were evaluated regularly as described above. The EAE clinical score kinetics over the study period are represented in FIGS. 22, 23 and 24. The weight curves, indicating relative weight gain compared to the day before first injection of immunogens, are presented in FIGS. 25, 26 and 27.

“Also recorded” adds a separate entry of the source.

B1: GNbAC1: recombinant humanized anti-Env IgG4 monoclonal antibody comprising the CDRs of SEQ ID No. 1 to 6 (antibody, chains of the INN, looked up, V domains shown)
VH: QVQLVQSGAEVKKPGSSVKVSCKASGYTFTDYEMHWVRQAPGQGLEWIGAVAPETGGTAYNQKFKGRATITADKSTSTAYMELSSLRSEDTAVYYCTSTVVPFAYWGQGTLVTVSS
VL: QIQLTQSPSSLSASVGDRVTITCSASSSVSYMYWYQQKPGKAPKAWIYRTSNLASGVPSRFSGSGSGTDYTLTISSLQPEDFATYYCQQYQSLPLTFGGGTKVEIK
For B1, the “Rotarod scores in all conditions (16 to 29 rpm tests)” value in test [1] (compared to untreated group A / to GNbAc1 alone) is “greatly stabilized and/or improved scores”. In addition, in test [1] (end of study period), the “Time on Rotarod at 23 rpm relative to Day -7” value is reported as “recovered a score similar to control mice without disease induction”; the “Time on Rotarod at 26 rpm relative to Day -7” value was “recovered a score similar to D,G,C,E and H groups”; the “Time on Rotarod at 29 rpm relative to Day -7” value was “recovered a score similar to control mice without disease induction”. The “weight gain over the study period, endpoint” value in test [2] (GNbAC1 200 μg) is on record as “endpoints equivalent to mock-controls”. The “weight gain over the study period, endpoint” value in test [2] (GNbAC1 500 μg, alone or with DMF) was “best endpoint; also recorded: positive effect on the global health”.

The values are drawn from patent US10752675B2, “Compounds for treating the remyelination blockade in diseases associated with the expression of HERV-W envelope protein” (GENEURO S.A., priority 2012, dated 2020).
